In paper PMC7029138, “Modulation of Symbiotic Compatibility by Rhizobial Zinc Starvation Machinery”:

T1: Zur (His6-Zur) (Sinorhizobium fredii CCBAU45436, UniProt C3MDK7 1-131)
T1 sequence: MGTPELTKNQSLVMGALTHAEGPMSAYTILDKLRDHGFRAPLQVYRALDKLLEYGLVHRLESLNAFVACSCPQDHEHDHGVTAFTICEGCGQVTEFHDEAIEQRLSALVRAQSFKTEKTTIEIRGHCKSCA

B1: znuA promoter Zur box probe (dsDNA)
DNA 1: GCGACTGCGTCGTGTAATGTTATTACATCAATTGCGTTATGCTATAACGTGTGCAATAGC
DNA 2: GCTATTGCACACGTTATAGCATAACGCAATTGATGTAATAACATTACACGACGCAGTCGC
B2: e68370 Zur box probe (dsDNA)
DNA 1: CAATCCCACGACGTAATGTTATAACATATCAGATAAGA
DNA 2: TCTTATCTGATATGTTATAACATTACGTCGTGGGATTG
B3: d65890 Zur box probe (dsDNA)
DNA 1: TGATCGACGTGTGTAATGATATAACATATCGCATAAGT
DNA 2: ACTTATGCGATATGTTATATCATTACACACGTCGATCA
B4: a42610 Zur box probe (dsDNA)
DNA 1: CAACATTCGCATGTTATGTTATAACATATCGCGTAATC
DNA 2: GATTACGCGATATGTTATAACATAACATGCGAATGTTG
B5: c06450 Zur box probe (dsDNA)
DNA 1: CAGCTCCTTATAATGTTATAACGTAACGGCACTTGATA
DNA 2: TATCAAGTGCCGTTACGTTATAACATTATAAGGAGCTG

Key:
Zur (His6-Zur) [1] = target: T1, Zur (His6-Zur); assay: EMSA; 200 uM ZnSO4; 0.33-2.64 uM Zur, oligomeric shift above 1.32 uM; 10 mM Tris pH 7.5, 50 mM KCl, 1 mM DTT, 1 ug poly(dI-dC), 200 uM ZnSO4, with or without 50 uM TPEN, ~50 fmol probe in 15 ul, 25 C 20 min; 5% native PAGE in TB at 4 C; conditions: protein: recombinant; tags: N-terminal His6 (pET-28a(+), BamHI/HindIII); chain copies: 2; label: 5' biotin on both strands; blunt
Zur (His6-Zur) [2] = target: T1, Zur (His6-Zur); assay: EMSA; 200 uM ZnSO4; 2.64 uM Zur; 10 mM Tris pH 7.5, 50 mM KCl, 1 mM DTT, 1 ug poly(dI-dC), 200 uM ZnSO4, with or without 50 uM TPEN, ~50 fmol probe in 15 ul, 25 C 20 min; 5% native PAGE in TB at 4 C; conditions: protein: recombinant; tags: N-terminal His6 (pET-28a(+), BamHI/HindIII); chain copies: 2; label: 5' biotin on both strands; blunt

Binder	binding result (Zur (His6-Zur) [1])	binding result (Zur (His6-Zur) [2])
B1	binds	–
B2	–	binds
B3	–	binds
B4	–	binds
B5	–	binds
